Data from patent US20250152759A1, “SINGLE-DOMAIN ANTIBODIES AND VARIANTS THEREOF AGAINST MET” (Wisconsin Alumni Research Foundation, priority 2023, published 2025).
Entries after “also recorded” stand apart in the source; their conditions may differ. Like-named read-outs stand apart in the source and are kept apart here.

Tests used:
[1] = test system: MET, AKT and ERK phosphorylation; experiment: Western blot of MET signaling, NSCLC and HeLa cell lines; format: cell-based, human; details: 5 nM, 4 h, positive control
Protocol: To determine if 1E7-Fc by itself was a therapeutic and inhibited MET signaling, as has been seen with other MET antibodies such as onartuzumab and emibetuzumab (De Mello et al. 2020), we performed a cell proliferation assay and Western blot to query effects of 1E7-Fc on cell behavior and downstream signaling pathways. Cell viability was measured using a panel of the same four cell lines. […] In contrast, treatment with the FDA-approved MET TKI, capmatinib, blocked MET, AKT, and ERK phosphorylation, as anticipated (FIG. 4B).
Cells were seeded in 10 cm dishes and treated with either control (PBS), 10 nM, or 100 nM 1E7-Fc when cells were reached about 75% confluency, and then cells were harvested 4 h after treatment. Five nM Capmatinib was used as a positive control. Cell lysates were generated as previously described (SenthilKumar et al. 2020).

[2] = test system: MET, AKT and ERK phosphorylation; experiment: Immunoblot of MET downstream signaling, Detroit 562 and T-47D; format: cell-based, human; details: 5 nM, positive control
Protocol: To determine if 1E7-Fc by itself was therapeutic and inhibited MET signaling, both cell proliferation assays and western blotting examining MET downstream signaling were evaluated in Detroit […] cell and T-47D as a negative control. The MET tyrosine kinase inhibitor capmatinib was used as a positive control for MET downstream signaling.
Cells were seeded in 10-cm dishes and treated with either control (i.e., PBS), 10 nM, or 100 nM 1E7-Fc when cells reached about 75% confluency, and then cells were harvested 4, 24, or 48 h after treatment. Capmatinib (5 nM) was used as a positive control for inhibition of MET signaling. Cell lysates were prepared as previously described (Könning et al. 2017). Equal amounts of protein were analyzed by sodium dodecyl-sulfate polyacrylamide gel electrophoresis (SDS-PAGE), transferred to polyvinylidene fluoride membranes, and probed with specific primary antibodies. Targets were detected with horseradish peroxidase (HRP)-conjugated secondary antibodies (BioRad) using Enhanced Chemiluminescence western blot substrates (Pierce) and imaged on a LI-COR Odyssey Fc. The specific antibodies are as listed: MET, phospho-MET (Tyr1234/1235), AKT, phosphor-AKT (Ser473), p44/42 MAPK (Erk1/2), phosphor-p44/42 MAPK (Erk1/2) *Thr202/Try204), GAPDH.

[3] = molecular target: T1, rhesus macaque MET (Macaca mulatta, UniProt F7H1K4); experiment: Dilution ELISA counter screen on rhesus macaque MET; format: binding
T1 construct: biotin (biotinylated)
T1 sequence (F7H1K4 25-1381): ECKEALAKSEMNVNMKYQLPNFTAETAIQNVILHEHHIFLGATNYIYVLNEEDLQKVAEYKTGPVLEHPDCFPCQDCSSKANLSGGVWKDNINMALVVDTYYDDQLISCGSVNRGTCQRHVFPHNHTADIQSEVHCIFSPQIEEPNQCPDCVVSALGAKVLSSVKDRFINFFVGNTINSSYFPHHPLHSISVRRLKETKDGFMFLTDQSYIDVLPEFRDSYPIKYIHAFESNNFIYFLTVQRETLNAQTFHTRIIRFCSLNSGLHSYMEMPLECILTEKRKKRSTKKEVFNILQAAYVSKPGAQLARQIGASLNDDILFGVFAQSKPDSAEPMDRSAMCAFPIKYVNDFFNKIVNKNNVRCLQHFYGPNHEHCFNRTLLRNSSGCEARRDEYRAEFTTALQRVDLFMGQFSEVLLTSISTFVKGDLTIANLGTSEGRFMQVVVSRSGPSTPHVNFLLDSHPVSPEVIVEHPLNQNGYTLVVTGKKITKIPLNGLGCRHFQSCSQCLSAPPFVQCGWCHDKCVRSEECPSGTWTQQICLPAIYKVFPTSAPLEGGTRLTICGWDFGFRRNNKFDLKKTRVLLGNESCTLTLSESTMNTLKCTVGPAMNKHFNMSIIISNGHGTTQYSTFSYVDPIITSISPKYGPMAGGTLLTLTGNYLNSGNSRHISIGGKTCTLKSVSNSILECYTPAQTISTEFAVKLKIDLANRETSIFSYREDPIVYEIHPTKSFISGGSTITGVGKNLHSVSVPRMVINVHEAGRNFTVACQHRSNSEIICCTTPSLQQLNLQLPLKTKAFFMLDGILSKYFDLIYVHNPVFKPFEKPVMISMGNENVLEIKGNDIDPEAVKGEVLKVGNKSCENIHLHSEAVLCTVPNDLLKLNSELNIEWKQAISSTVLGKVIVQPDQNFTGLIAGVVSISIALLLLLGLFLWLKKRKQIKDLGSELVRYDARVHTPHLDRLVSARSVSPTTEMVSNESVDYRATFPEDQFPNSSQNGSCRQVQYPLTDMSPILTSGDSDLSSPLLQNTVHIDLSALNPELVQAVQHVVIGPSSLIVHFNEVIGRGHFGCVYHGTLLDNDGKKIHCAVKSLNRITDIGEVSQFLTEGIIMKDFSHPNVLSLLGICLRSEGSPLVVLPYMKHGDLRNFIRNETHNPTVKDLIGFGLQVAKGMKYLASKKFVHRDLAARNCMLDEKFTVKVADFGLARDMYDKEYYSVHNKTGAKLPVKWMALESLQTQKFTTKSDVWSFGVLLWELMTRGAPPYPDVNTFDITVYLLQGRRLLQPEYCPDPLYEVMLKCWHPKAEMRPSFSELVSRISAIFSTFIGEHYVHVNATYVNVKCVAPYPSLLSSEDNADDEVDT
From the text: (§1) Next, we evaluated the ability of the three unique VHH clones (1E7, 1A2, and 2G9) to bind murine and rhesus monkey MET by performing ELISA counter screens. […] The three clones were expressed and purified for additional testing to identify a lead VHH. Biolayer interferometry (BLI) was next used to determine the affinity of each VHH domain for MET (FIGS. 3B-D, Table 7). […] The BLI and dilution ELISA data combined determined that 1E7 was the lead clone to for development into a VHH-Fc targeting MET.
(§2) Dilution ELISA: MaxiSorp plates were prepared as described above. 50 μL of biotinylated human cMET, murine cMET, or rhesus macaque cMET was added to the wells. 1E7 monomeric VHH was serial diluted from 1 μM to 15.6 nM in PBS, 1% BSA < and 0.005% Tween20 and added to each well. Wells with protein but no 1E7 VHH were used as a negative control. 1E7 binding was detected, as described above.

[4] = molecular target: T2, murine MET (Mus musculus, UniProt P16056); experiment: Dilution ELISA counter screen on murine MET; format: binding
T2 construct: biotin (biotinylated)
T2 sequence (P16056 25-1379): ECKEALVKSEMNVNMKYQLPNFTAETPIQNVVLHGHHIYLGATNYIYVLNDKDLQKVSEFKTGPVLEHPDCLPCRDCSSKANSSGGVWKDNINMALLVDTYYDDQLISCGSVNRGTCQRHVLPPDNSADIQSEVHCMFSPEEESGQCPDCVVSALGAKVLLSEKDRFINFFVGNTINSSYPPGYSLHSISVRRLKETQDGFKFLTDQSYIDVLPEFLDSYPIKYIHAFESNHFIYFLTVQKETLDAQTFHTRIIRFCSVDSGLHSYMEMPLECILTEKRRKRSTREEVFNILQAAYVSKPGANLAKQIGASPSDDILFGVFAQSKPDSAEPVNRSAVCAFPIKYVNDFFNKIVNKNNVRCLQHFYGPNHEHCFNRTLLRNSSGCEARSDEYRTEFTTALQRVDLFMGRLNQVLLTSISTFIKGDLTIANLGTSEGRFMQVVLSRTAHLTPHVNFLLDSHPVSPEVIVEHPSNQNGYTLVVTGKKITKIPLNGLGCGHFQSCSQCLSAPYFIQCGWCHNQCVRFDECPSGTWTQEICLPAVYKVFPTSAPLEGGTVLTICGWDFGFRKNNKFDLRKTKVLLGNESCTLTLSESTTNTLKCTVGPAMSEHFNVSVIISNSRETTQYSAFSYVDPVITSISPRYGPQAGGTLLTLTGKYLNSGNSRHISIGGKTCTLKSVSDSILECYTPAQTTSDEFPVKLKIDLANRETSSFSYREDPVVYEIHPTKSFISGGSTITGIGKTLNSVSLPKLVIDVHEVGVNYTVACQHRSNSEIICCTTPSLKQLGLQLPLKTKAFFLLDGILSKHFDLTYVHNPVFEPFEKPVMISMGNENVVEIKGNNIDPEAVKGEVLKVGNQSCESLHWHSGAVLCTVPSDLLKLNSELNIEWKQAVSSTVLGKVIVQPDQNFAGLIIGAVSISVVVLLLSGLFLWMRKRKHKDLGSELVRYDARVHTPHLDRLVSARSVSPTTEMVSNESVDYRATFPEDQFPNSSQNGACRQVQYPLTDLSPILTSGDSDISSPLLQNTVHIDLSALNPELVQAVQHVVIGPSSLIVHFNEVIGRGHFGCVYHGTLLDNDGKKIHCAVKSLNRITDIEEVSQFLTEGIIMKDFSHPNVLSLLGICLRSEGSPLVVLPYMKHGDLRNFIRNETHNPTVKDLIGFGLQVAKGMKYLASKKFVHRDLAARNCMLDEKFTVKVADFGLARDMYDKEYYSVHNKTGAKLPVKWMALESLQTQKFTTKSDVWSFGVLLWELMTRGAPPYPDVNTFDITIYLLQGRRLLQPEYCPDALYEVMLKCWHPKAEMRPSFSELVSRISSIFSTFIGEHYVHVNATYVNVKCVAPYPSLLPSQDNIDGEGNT
From the text: as §1, §2

[5] = molecular target: T3, human MET (Homo sapiens, UniProt P08581); experiment: Biolayer interferometry (BLI) of VHH domains on human MET; format: binding; details: for Ka / Kd: BLI curve fit; for Ka: association rate; for binding affinity to human MET (in words): comparison of the three VHH clones
T3 sequence (P08581 25-932 limits assumed): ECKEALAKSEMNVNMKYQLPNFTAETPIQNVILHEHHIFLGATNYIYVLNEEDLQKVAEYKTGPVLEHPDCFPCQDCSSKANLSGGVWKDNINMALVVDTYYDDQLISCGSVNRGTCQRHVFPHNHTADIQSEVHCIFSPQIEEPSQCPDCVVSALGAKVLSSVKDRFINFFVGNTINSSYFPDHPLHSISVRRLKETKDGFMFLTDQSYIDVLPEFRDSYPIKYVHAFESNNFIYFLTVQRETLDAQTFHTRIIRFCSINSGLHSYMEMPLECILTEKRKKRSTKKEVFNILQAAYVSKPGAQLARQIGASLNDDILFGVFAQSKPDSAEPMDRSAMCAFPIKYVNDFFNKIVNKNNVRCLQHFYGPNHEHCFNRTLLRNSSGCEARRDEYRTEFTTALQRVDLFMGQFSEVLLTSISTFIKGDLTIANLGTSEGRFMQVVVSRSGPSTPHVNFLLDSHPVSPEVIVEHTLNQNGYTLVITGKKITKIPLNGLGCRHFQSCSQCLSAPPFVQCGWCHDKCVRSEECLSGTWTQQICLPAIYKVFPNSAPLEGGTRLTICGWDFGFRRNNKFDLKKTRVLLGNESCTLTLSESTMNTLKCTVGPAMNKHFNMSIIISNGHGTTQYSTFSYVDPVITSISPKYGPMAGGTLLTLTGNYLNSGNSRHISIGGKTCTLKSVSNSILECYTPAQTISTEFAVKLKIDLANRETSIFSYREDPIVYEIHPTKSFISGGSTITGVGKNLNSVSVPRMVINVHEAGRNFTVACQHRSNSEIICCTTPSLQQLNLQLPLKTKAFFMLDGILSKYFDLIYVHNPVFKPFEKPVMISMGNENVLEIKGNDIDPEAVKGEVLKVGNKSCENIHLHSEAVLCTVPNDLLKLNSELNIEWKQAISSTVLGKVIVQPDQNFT

[6] = molecular target: T3, human MET; experiment: Dilution ELISA on human MET; format: binding; parameters: Single-domain constructs specific to MET extracellular domain were identified from a naïve VHH antibody phage display library; biotin (biotinylated); details: for specificity for human versus rhesus macaque and murine MET: ELISA, FIG. 3A
From the text: as §1, §2

[7] = dissociation rate, unit not given

## CNC(=O)c1ccc(-c2cnc3ncc(Cc4ccc5ncccc5c4)n3n2)cc1F [capmatinib, reference compound]
[1]
  effect on MET, AKT and ERK phosphorylation: blocked
[2]
  effect on phosphorylation of MET: effectively blocked

B1: 1E7: anti-MET camelid VHH single-domain antibody from phage display, amino acid sequence SEQ ID NO:22 (protein)
VHH: EVQLVESGGGLVQPGGSLRLSCEASGFNFERYDMSWVRQAPGKGPEWVSRLNSFGRSTYYLDSVKGRFTVSRDNAQNMLYLQMNNLKPEDTAVYYCARSTDVSPGLSSWWTYEYDVWGQGTQVTVSS
[3]
  binding to rhesus macaque MET: modest cross-reactivity; also recorded: minimal binding
[4]
  binding to murine MET: modest cross-reactivity; also recorded: minimal binding
[5]; BLI
  kon and koff compared to the other clones: highest kon and the lowest koff
[5]; unit not given
  Ka: 1.445 × 10^5
[5]; [7]
  Kd: 4.045 × 10^−2
[5]; nM, read-out: KD
  Kd: 27 nM
[5]
  binding affinity to human MET (in words): high affinity; also recorded: highest binding affinity
[6]; dilution ELISA, unpurified VHH serially diluted
  ELISA signal on human MET: strongest MET signal; also recorded: saturating ELISA signals

B2: 1A2: anti-MET camelid VHH single-domain antibody from phage display, amino acid sequence SEQ ID NO:24 (protein)
VHH: EAQLVESGGGLVQPGGSLRLSCEASGFNFERYDMSWVRQAPGKGPEWVSRLNSFGRSTYYLDSVKGRFTVSRDTAKSTFYLQMNNLKPEDAGVYYCARSTDVSPGLSSWWTYEYDVWGQGTQVTVSS
[3]
  binding to rhesus macaque MET: modest cross-reactivity
[4]
  binding to murine MET: modest cross-reactivity
[5]; unit not given
  Ka: 1.865 × 10^5
[5]; [7]
  Kd: 2.869 × 10^−2
[5]; nM, read-out: KD
  Kd: 43 nM
[5]
  binding affinity to human MET (in words): high affinity; also recorded: weaker binding affinities
[6]
  specificity for human versus rhesus macaque and murine MET: did not show clear specificity

B3: 2G9: anti-MET camelid VHH single-domain antibody from phage display, amino acid sequence SEQ ID NO:26 (protein)
VHH: EVQLVESGGALVQPGGSLRLSCAASGFTFGAYDMVWVRHATGKGPEWISFISNGGEEVSYASSVKDRFTISRDNAQNMLYLQMNNLKPEDTAVYYCARSTDVSPGLSSWWTYEYDVWGQGTLVTVSS
[3]
  binding to rhesus macaque MET: modest cross-reactivity
[4]
  binding to murine MET: modest cross-reactivity
[5]; unit not given
  Ka: 1.000 × 10^4
[5]; [7]
  Kd: 1.500 × 10^−3
[5]; nM, read-out: KD
  Kd: 159 nM
[5]
  binding affinity to human MET (in words): high affinity; also recorded: weaker binding affinities
[6]
  specificity for human versus rhesus macaque and murine MET: did not show clear specificity
